The source of these data is patent publication US8034913B2, “Recombinantly modified plasmin” (Grifols Therapeutics Inc., priority 2004, dated 2011).

Values joined by “and” are separate entries in the source; they are usually repeats but may differ in a detail not shown here. Equal values may be shown once. Read-outs that look alike come from different tables or passages of the source.

The target of data set [1] is T1, urokinase (Homo sapiens, UniProt P00749). Nature of the data set: Kinetics of urokinase activation of plasminogen species (S-2251 coupled assay, method of Wohl et al.). The data set is classed as biochemical. The settings on record: 5.8 nM urokinase, 1 mM S-2251, 37° C., pH 7.5. On the procedure:
Increases in absorbance were monitored at 405 nm.
Activation of delta-plasminogen to delta-plasmin was complete within 3 minutes under these conditions. Very similar results were obtained with tPA and streptokinase.
Data were fit to a Michaelis-Menten kinetic model using Lineweaver-Burk analysis, resulting in the values below: […]

Data set [2] concerns the target T1, urokinase. The settings on record: urokinase activation; Wohl et al. 1980; read-out: Km, literature value; cited from earlier work.
Data set [3] is described as follows: Amidolytic activity, steady-state kinetics with substrate S-2251. The data set is classed as biochemical. The settings on record: S-2251, PBS buffer, pH 7.4, 25° C.; for kcat: delta-plasmin corrected for percent active sites.
A further data set deals with T2, α2-macroglobulin (Homo sapiens, UniProt P01023).
T2 sequence (P01023 24-1474): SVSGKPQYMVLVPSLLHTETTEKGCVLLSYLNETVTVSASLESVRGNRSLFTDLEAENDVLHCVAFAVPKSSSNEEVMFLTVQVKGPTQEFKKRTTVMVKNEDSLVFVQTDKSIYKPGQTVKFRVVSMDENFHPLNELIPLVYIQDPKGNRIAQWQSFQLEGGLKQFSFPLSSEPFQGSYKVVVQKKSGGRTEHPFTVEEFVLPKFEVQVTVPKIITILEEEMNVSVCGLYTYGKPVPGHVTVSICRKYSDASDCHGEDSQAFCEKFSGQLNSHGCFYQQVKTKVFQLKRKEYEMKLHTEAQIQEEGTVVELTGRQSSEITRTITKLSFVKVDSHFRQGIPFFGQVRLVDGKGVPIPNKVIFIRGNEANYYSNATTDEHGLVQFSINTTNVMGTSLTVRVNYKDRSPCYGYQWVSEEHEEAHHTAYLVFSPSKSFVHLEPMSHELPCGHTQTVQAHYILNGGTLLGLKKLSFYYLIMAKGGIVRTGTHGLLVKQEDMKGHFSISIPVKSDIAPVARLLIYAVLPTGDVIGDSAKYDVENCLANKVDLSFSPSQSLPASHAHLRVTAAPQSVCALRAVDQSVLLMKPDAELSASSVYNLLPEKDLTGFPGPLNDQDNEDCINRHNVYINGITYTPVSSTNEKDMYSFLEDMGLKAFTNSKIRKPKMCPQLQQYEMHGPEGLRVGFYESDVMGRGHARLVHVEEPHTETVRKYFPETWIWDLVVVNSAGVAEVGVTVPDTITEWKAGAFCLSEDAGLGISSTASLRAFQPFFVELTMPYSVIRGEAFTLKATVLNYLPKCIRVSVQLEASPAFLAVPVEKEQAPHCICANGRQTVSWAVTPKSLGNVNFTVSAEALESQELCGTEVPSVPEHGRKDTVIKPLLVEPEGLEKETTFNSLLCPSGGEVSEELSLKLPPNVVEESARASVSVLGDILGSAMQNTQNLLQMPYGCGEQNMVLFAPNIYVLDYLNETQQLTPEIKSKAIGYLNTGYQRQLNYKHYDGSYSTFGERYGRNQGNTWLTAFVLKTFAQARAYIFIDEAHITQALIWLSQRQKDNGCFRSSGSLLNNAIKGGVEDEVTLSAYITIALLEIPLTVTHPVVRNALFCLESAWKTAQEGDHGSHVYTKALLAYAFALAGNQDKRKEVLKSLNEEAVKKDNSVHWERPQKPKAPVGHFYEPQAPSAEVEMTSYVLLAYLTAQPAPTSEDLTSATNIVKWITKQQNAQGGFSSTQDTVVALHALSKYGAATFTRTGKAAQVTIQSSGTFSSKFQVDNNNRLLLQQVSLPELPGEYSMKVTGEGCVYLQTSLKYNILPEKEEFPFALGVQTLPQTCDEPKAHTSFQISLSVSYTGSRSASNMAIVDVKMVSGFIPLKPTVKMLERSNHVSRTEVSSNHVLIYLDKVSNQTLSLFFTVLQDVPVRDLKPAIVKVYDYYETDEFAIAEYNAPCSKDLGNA
Briefly: Rate of inhibition by α2-macroglobulin (method of Anonick et al.). The data set is classed as biochemical. The settings on record: 22° C. in PBS buffer, pH 7.4. On the procedure: The rate of inhibition of delta-plasmin by α2-macroglobulin was measured using the method of Anonick et al. (Anonick, P., et al., Thrombosis Res. 59:449-462 (1990)).
(§1) Literature values are taken from Anonick, et al., Thrombosis Res. 59:449 (1990). All rates were measured according to the methods published in Anonick, et al.

In data set [4] the target is T3, α2-antiplasmin (Homo sapiens, UniProt P08697).
T3 sequence (P08697 40-491): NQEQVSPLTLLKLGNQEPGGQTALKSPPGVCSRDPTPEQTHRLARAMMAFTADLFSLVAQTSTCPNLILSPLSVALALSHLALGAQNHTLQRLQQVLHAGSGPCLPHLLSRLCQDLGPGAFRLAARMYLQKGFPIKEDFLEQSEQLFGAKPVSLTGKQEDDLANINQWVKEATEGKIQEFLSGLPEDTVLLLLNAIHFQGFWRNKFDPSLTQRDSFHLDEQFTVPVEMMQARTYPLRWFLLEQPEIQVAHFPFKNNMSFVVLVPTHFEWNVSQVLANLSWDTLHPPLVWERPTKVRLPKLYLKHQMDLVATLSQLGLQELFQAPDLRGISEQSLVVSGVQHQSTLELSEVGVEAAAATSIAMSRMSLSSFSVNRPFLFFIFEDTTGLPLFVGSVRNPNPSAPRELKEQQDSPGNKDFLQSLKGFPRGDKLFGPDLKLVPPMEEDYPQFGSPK
Briefly: Rate of inhibition by α2-antiplasmin (method of Wiman and Collen, S-2251 activity at time points). In kind it is biochemical. As to conditions: 22° C. in PBS buffer, pH 7.4. As to the method:
as §1

Data set [5] concerns retracted whole human blood clots. Briefly: In vitro model of catheter-assisted thrombolysis, lysis of retracted whole-blood clots. As to conditions: single 1-ml dose injected into clot, 60 min at 37° C.; delta-plasmin 0.44 mg, plasmin 1.0 mg (equimolar). On the procedure: FIG. 11 is a graphic representation of delta-plasmin-induced lysis of retracted whole-blood clots. Each clot (0.8×7 cm) was injected with a 1 ml volume of vehicle (acidified saline, pH 3.6), plasmin (1.0 mg/ml), or delta-plasmin (0.44 mg/ml), and clot dissolution was allowed to proceed at 37° C. for 1 hour.
The thrombolytic efficacy of delta-plasmin was tested in an in vitro model of catheter-assisted thrombolysis (Novokhatny, V. et al., J Thromb Haemost., 1(5):1034-41 (2003), incorporated by reference) using the following experimental protocol.
Fresh whole human blood was collected into 20×0.95 cm glass tubes and allowed to clot spontaneously without additives. Tubes were incubated for 20 hr at 37° C. to allow full retraction. Retracted clots were separated from serum using USA Standard testing sieves D16 with 14 mesh, and their weights were determined. […]
Single 1-ml doses of acidified saline, plasmin, or delta-plasmin were injected into the clot using a syringe. […] After the incubation, the clots were placed again on the sieve to remove the liquefied material and the weight of the digested clots was measured. The extent of clot lysis was determined from the difference between the initial clot weight and the weight of residual clot and was expressed as a percent of clot weight reduction.

Data set [6] has as its target T3, α2-antiplasmin. The settings on record: literature value, Anonick et al. 1990; cited from earlier work.

The term Km denotes the substrate concentration at which the rate is half of its maximum. The term kcat denotes the number of substrate molecules converted per active site and unit of time at saturation. Turning to “Plasminogen: human plasminogen, single-chain protein containing 791 amino acid residues”, in the data set with urokinase [1], the Km was determined as 1.2 µM and the catalytic constant (kcat) worked out at 0.0383 ± 0.005 s⁻¹. Moreover, in the data set with urokinase [2], the Km was 1.7 µM.

B1: micro-plasmin: plasmin species lacking all five kringles (protein)
chain: APSFDCGKPQVEPKKCPGRVVGGCVAHPHSWPWQVSLRTRFGMHFCGGTLISPEWVLTAAHCLEKSPRPSSYKVILGAHQEVNLEPHVQEIEVSRLFLEPTRKDIALLKLSSPAVITDKVIPACLPSPNYVVADRTECFITGWGETQGTFGAGLLKEAQLPVIENKVCNRYEFLNGRVQSTELCAGHLAGGTDSCQGDSGGPLVCFEKDKYILQGVTSWGLGCARPNKPGVYVRVSRFVTWIEGVMRNN
As for B1, in data set [3], the Km is 145 µM and the turnover number (kcat) came out at 13.2 ± 0.4 s⁻¹. Besides, in the data set with α2-macroglobulin, the “inhibition rate by α2-macroglobulin” value is reported as 7.8 +/− 0.6 × 10^5 M^−1s^−1. In the data set with α2-antiplasmin [4], the “inhibition rate by α2-antiplasmin” value is 1.8×10^5 M^−1s^−1 and 3.1×10^5 M^−1s^−1 and 1.8 +/− 0.2 × 10^5 M^−1s^−1.

B2: plasmin: two-chain, disulfide-linked serine protease from activation of plasminogen (antibody)
heavy: EPLDDYVNTQGASLFSVTKKQLGAGSIEECAAKCEEDEEFTCRAFQYHSKEQQCVIMAENRKSSIIIRMRDVVLFEKKVYLSECKTGNGKNYRGTMSKTKNGITCQKWSSTSPHRPRFSPATHPSEGLEENYCRNPDNDPQGPWCYTTDPEKRYDYCDILECEEECMHCSGENYDGKISKTMSGLECQAWDSQSPHAHGYIPSKFPNKNLKKNYCRNPDRELRPWCFTTDPNKRWELCDIPRCTTPPPSSGPTYQCLKGTGENYRGNVAVTVSGHTCQHWSAQTPHTHNRTPENFPCKNLDENYCRNPDGKRAPWCHTTNSQVRWEYCKIPSCDSSPVSTEQLAPTAPPELTPVVQDCYHGDGQSYRGTSSTTTTGKKCQSWSSMTPHRHQKTPENYPNAGLTMNYCRNPDADKGPWCFTTDPSVRWEYCNLKKCSGTEASVVAPPPVVLLPDVETPSEEDCMFGNGKGYRGKRATTVTGTPCQDWAAQEPHRHSIFTPETNPRAGLEKNYCRNPDGDVGGPWCYTTNPRKLYDYCDVPQCAAPSFDCGKPQVEPKKCPGR
light: VVGGCVAHPHSWPWQVSLRTRFGMHFCGGTLISPEWVLTAAHCLEKSPRPSSYKVILGAHQEVNLEPHVQEIEVSRLFLEPTRKDIALLKLSSPAVITDKVIPACLPSPNYVVADRTECFITGWGETQGTFGAGLLKEAQLPVIENKVCNRYEFLNGRVQSTELCAGHLAGGTDSCQGDSGGPLVCFEKDKYILQGVTSWGLGCARPNKPGVYVRVSRFVTWIEGVMRNN
Consider B2, for which, in data set [3], the Km is 193 µM and the kcat worked out at 12.7 ± 0.383 s⁻¹. The kcat in data set [3] (listed as full-length plasmin) stood at 12.7 ± 0.383 s⁻¹. Moreover, the “inhibition rate by α2-macroglobulin” value in the data set with α2-macroglobulin is on record as 6.5 +/− 0.5 × 10^5 M^−1s^−1. In data set [5], this molecule had a clot weight reduction of 50%. Besides, the “inhibition rate by α2-antiplasmin (lit.)” value in the data set with α2-antiplasmin [6] is 2.5×10^7 M^−1s^−1 and 2.5 +/− 0.5 × 10^7 M^−1s^−1.

B3: mini-plasmin: activated mini-plasminogen (Val443-Asn791), fifth kringle and serine protease domain (K5-SP) (protein)
chain 1: VAPPPVVLLPDVETPSEEDCMFGNGKGYRGKRATTVTGTPCQDWAAQEPHRHSIFTPETNPRAGLEKNYCRNPDGDVGGPWCYTTNPRKLYDYCDVPQCAAPSFDCGKPQVEPKKCPGR
chain 2: B2 light
Regarding B3, in data set [3], the Km was found to be 160 µM and the catalytic constant (kcat) was found to be 12.8 ± 1.17 s⁻¹. Also, the “inhibition rate by α2-macroglobulin” value in the data set with α2-macroglobulin was 7.5 +/− 0.3 × 10^5 M^−1s^−1. Moreover, in the data set with α2-antiplasmin [4], the “inhibition rate by α2-antiplasmin” value was 2.4×10^5 M^−1s^−1 and 2.4 +/− 0.5 × 10^5 M^−1s^−1.
